Laboratory results reported in patent EP0251446B1, “Non-human Carbonyl hydrolase mutants, DNA sequences and vectors encoding same and hosts transformed with said vectors” (GENENCOR INTERNATIONAL, INC., priority 1986, dated 1988).
Where a chain is given by its changes, count along the chain named. In names and notes the source's numbering stands.

Legend:
Assay type in all cases: biochemical, B. amyloliquefaciens
[1] = substrate: C[C@H](NC(=O)CCC(=O)O)C(=O)N[C@@H](C)C(=O)N1CCC[C@H]1C(=O)N[C@@H](Cc1ccccc1)C(=O)Nc1ccc([N+](=O)[O-])cc1; assay: Kinetics of p-nitroanilide substrate hydrolysis, Q156/K166; details: other: Table XIII, Q156/K166; synthetic substrate with label as P-1 residue
Description: (§1) Wild-type subtilisin was purified from B. subtilis culture supernatants expressing the B. amyloliquefaciens subtilisin gene (Wells, J.A., et al. (1983) Nucleic Acids Res. 11, 7911-7925) as previously described (Estell, D.A., et al. (1985) J. Biol. Chem. 260, 6518-6521). Details of the synthesis of tetrapeptide substrates having the form succinyl-L-AlaL-AlaL-ProL-[X]-p-nitroanilide (where X is the P1 amino acid) are described by DelMar, E.G., et al. (1979) Anal. Biochem. 99, 316-320. Kinetic parameters, Km(M) and kcat-(s-^1) were measured using a modified progress curve analysis (Estell, D.A., et al. (1985) J. Biol. Chem. 260, 6518-6521). Briefly, plots of rate versus product concentration were fit to the differential form of the rate equation using a non-linear regression algorithm. Errors in kcat and Km for all values reported are less than five percent. The various substrates in Table VIII are ranged in order of decreasing hydrophobicity. Nozaki, Y. (1971), J. Biol. Chem. 246, 2211-2217; Tanford C. (1978) Science 200, 1012).
(§2) The multiple mutants were produced by combining fragments 1, 2 and 3 as described in Example 8. The mutants Q156/K166 and S156/K166 were selectively generated by differential phosphorylation as described. Alternatively, the double 156/166 mutants, c.f. Q156/K166 and S156/K166, were prepared by ligation of the 4.6kb Sacl-BamHI fragment from the relevant p156 plasmid containing the 0.6kb Sacl-BamHI fragment from the relevant p166 plasmid.
(§3) These mutants, the single mutant K166, and the S156 and Q156 mutants of Example 8 were analyzed for substitute specificity against synthetic polypeptides containing Phe or Glu as the P-1 substrate residue.
(§4) To isolate the contribution of electrostatics to substrate specificity from other chemical binding forces, these various single and double mutants were analyzed for their ability to bind and cleave synthetic substrates containing Glu, Gln, Met and Lys as the P-1 substrate amino acid. This permitted comparisons between side-chains that were more sterically similar but differed in charge (e.g., Glu versus Gln, Lys versus Met). Similarly, mutant enzymes were assayed against homologous P-1 substrates that were most sterically similar but differed in charge (Table XIV).

[2] = substrate: C[C@H](NC(=O)CCC(=O)O)C(=O)N[C@@H](C)C(=O)N1CCC[C@H]1C(=O)N[C@@H](CCCCN)C(=O)Nc1ccc([N+](=O)[O-])cc1; assay: as above; details: other: Table XIV, 156 Gln / 166 Lys; value in parentheses; synthetic substrate with label as P-1 amino acid
Description: as §1, §2, §3, §4

[3] = substrate: C[C@H](NC(=O)CCC(=O)O)C(=O)N[C@@H](C)C(=O)N1CCC[C@H]1C(=O)N[C@@H](CCC(=O)O)C(=O)Nc1ccc([N+](=O)[O-])cc1; assay: as above
Description: as §1, §2, §3, §4

[4] = substrate: C[C@H](NC(=O)CCC(=O)O)C(=O)N[C@@H](C)C(=O)N1CCC[C@H]1C(=O)N[C@@H](CCC(N)=O)C(=O)Nc1ccc([N+](=O)[O-])cc1; assay: as above; details: other: Table XIV, 156 Gln / 166 Lys; value in parentheses; synthetic substrate with label as P-1 amino acid
Description: as §1, §2, §3, §4

[5] = substrate: CSCC[C@H](NC(=O)[C@@H]1CCCN1C(=O)[C@H](C)NC(=O)[C@H](C)NC(=O)CCC(=O)O)C(=O)Nc1ccc([N+](=O)[O-])cc1; assay: as above; details: other: Table XIV, 156 Gln / 166 Lys; value in parentheses; synthetic substrate with label as P-1 amino acid
Description: as §1, §2, §3, §4

[6] = substrate: C[C@H](NC(=O)CCC(=O)O)C(=O)N[C@@H](C)C(=O)N1CCC[C@H]1C(=O)N[C@@H](Cc1ccccc1)C(=O)Nc1ccc([N+](=O)[O-])cc1; assay: Kinetics of p-nitroanilide substrate hydrolysis, S156/K166; details: other: Table XIII, S156/K166; synthetic substrate with label as P-1 residue
Description: as §1, §2, §3, §4

[7] = substrate: C[C@H](NC(=O)CCC(=O)O)C(=O)N[C@@H](C)C(=O)N1CCC[C@H]1C(=O)N[C@@H](CCCCN)C(=O)Nc1ccc([N+](=O)[O-])cc1; assay: as above; details: other: Table XIV, 156 Ser / 166 Lys; value in parentheses; synthetic substrate with label as P-1 amino acid
Description: as §1, §2, §3, §4

[8] = substrate: C[C@H](NC(=O)CCC(=O)O)C(=O)N[C@@H](C)C(=O)N1CCC[C@H]1C(=O)N[C@@H](CCC(=O)O)C(=O)Nc1ccc([N+](=O)[O-])cc1; assay: as above
Description: as §1, §2, §3, §4

[9] = substrate: C[C@H](NC(=O)CCC(=O)O)C(=O)N[C@@H](C)C(=O)N1CCC[C@H]1C(=O)N[C@@H](CCC(N)=O)C(=O)Nc1ccc([N+](=O)[O-])cc1; assay: as above; details: other: Table XIV, 156 Ser / 166 Lys; value in parentheses; synthetic substrate with label as P-1 amino acid
Description: as §1, §2, §3, §4

[10] = substrate: CSCC[C@H](NC(=O)[C@@H]1CCCN1C(=O)[C@H](C)NC(=O)[C@H](C)NC(=O)CCC(=O)O)C(=O)Nc1ccc([N+](=O)[O-])cc1; assay: as above; details: other: Table XIV, 156 Ser / 166 Lys; value in parentheses; synthetic substrate with label as P-1 amino acid
Description: as §1, §2, §3, §4

[11] = substrate: C[C@H](NC(=O)CCC(=O)O)C(=O)N[C@@H](C)C(=O)N1CCC[C@H]1C(=O)N[C@@H](CCCCN)C(=O)Nc1ccc([N+](=O)[O-])cc1; assay: Kinetics of p-nitroanilide substrate hydrolysis, D166; details: other: Table XIV, 156 Glu / 166 Asp; value in parentheses; synthetic substrate with label as P-1 amino acid
Description: as §1
(§5) The construction of subtilisin mutants containing the substitution of the ionic amino acids Asp, Asn, Gln, Lys and Ang are disclosed in EPO Publication No. 0130756. The present example describes the construction of the mutant subtilisin containing Glu at position 166 (E166) and presents substrate specificity data on these mutants. Further data on position 166 and 156 single and double mutants is presented infra.
(§6) Each of these mutants was analyzed with the tetrapeptide substrates, succinyl-L-AlaL-AlaProL-X-p-nitroanilide, where X was Phe, Ala and Glu.

[12] = substrate: C[C@H](NC(=O)CCC(=O)O)C(=O)N[C@@H](C)C(=O)N1CCC[C@H]1C(=O)N[C@@H](CCC(N)=O)C(=O)Nc1ccc([N+](=O)[O-])cc1; assay: as above; details: other: Table XIV, 156 Glu / 166 Asp; value in parentheses; synthetic substrate with label as P-1 amino acid
Description: as §1, §5, §6

[13] = substrate: CSCC[C@H](NC(=O)[C@@H]1CCCN1C(=O)[C@H](C)NC(=O)[C@H](C)NC(=O)CCC(=O)O)C(=O)Nc1ccc([N+](=O)[O-])cc1; assay: as above; details: other: Table XIV, 156 Glu / 166 Asp; value in parentheses; synthetic substrate with label as P-1 amino acid
Description: as §1, §5, §6

[14] = other: Table XIII, Q156/K166, synthetic substrate with label as P-1 residue
[15] = other: Table XIII, S156/K166, synthetic substrate with label as P-1 residue

B1: B. amyloliquefaciens subtilisin variant Q156/K166 (Bacillus amyloliquefaciens; E263Q/G273K) (protein)
chain: AQSVPYGVSQIKAPALHSQGYTGSNVKVAVIDSGIDSSHPDLKVAGGASMVPSETNPFQDNNSHGTHVAGTVAALNNSIGVLGVAPSASLYAVKVLGADGSGQYSWIINGIEWAIANNMDVINMSLGGPSGSAALKAAVDKAVASGVVVVAAAGNQGTSGSSSTVKYPGKYPSVIAVGAVDSSNQRASFSSVGPELDVMAPGVSIQSTLPGNKYGAYNGTSMASPHVAGAAALILSKHPNWTNTQVRSSLENTTTKLGDSFYYGKGLINVQAAAQ
notes: at various amino acid residues within the mature form of the subtilisin molecule; made in house
[1]
  Km: 19 µM
  kcat: 30.00 s-^1
  kcat/Km: 1.6e+06 M⁻¹ s⁻¹
[2]
  Km: 1780 µM
[3]; [14]
  Km: 31 µM
  kcat: 1.60 s-^1
  kcat/Km: 50000 M⁻¹ s⁻¹
[3]; other: Table XIV, 156 Gln / 166 Lys, value in parentheses, synthetic substrate with label as P-1 amino acid
  Km: 31.6 µM
[4]
  Km: 209 µM
[5]
  Km: 20.9 µM

B2: B. amyloliquefaciens subtilisin variant S156/K166 (Bacillus amyloliquefaciens; E263S/G273K) (protein)
chain: B1 chain with Q156S
notes: as for B1
[6]
  Km: 18 µM
  kcat: 30.00 s-^1
  kcat/Km: 1.6e+06 M⁻¹ s⁻¹
[7]
  Km: 1450 µM
[8]; [15]
  Km: 39 µM
  kcat: 0.60 s-^1
  kcat/Km: 16000 M⁻¹ s⁻¹
[8]; other: Table XIV, 156 Ser / 166 Lys, value in parentheses, synthetic substrate with label as P-1 amino acid
  Km: 39.8 µM
[9]
  Km: 115 µM
[10]
  Km: 12.6 µM

B3: B. amyloliquefaciens subtilisin variant D166 (Gly166 to Asp) (Bacillus amyloliquefaciens; G273D) (protein)
chain: B1 chain with Q156E, K166D
notes: at various amino acid residues within the mature form of the subtilisin molecule; made in house; host or cells: Bacillus subtilis BG2036
[11]
  Km: 1000 µM
[12]
  Km: 2750 µM
[13]
  Km: 1820 µM
